Results taken from patent US7785829 (Biogen, dated 2010).

Columns and labels:
[1] = molecular target: His-AP-Sp35 fusion protein (His-tagged alkaline phosphatase fused to the extracellular domain of Sp35, a.a. 34-532) (human) (UniProt P05187); assay: competition ELISA; AP-Sp35 pre-incubated with 100-fold excess of soluble sNgR344-Fc, immobilized sNgR344-Fc
[2] = molecular target: T1, human NgR1 receptor expressed on COS7 cells (human, UniProt Q9BZR6 27-447); assay: AP-Sp35 titration on NgR1-transfected COS7 cells, AP activity with 4-nitrophenyl phosphate
T1 construct: whole, on cells; also called Nogo receptor-1; nogo receptor-1
T1 sequence (looked up): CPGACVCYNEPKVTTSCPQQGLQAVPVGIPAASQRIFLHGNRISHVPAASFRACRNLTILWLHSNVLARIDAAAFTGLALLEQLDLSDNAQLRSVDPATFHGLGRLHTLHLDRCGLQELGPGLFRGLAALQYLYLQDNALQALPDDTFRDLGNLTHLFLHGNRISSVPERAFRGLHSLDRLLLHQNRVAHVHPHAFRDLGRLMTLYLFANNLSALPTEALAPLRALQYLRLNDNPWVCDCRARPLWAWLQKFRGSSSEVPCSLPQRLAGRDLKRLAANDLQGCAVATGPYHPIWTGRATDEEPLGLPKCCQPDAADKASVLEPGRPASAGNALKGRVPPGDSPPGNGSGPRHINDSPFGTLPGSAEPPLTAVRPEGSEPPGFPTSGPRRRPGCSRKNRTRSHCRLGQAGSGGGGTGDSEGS

[3] = molecular target: T1, human NgR1 receptor expressed on COS7 …; assay: mutant AP-Sp35 construct tested for NgR1 binding

B1: sNgR344-Fc (rat NgR1 peptide 35-344 fused to the rat IgG1) (Fc fusion, UniProt Q99M75 35-344, looked up, not shown: a dimerising Fc or GST)
chain: NEPKVTTSCPQQGLQAVPTGIPASSQRIFLHGNRISYVPAASFQSCRNLTILWLHSNALAGIDAAAFTGLTLLEQLDLSDNAQLRVVDPTTFRGLGHLHTLHLDRCGLQELGPGLFRGLAALQYLYLQDNNLQALPDNTFRDLGNLTHLFLHGNRIPSVPEHAFRGLHSLDRLLLHQNHVARVHPHAFRDLGRLMTLYLFANNLSMLPAEVLVPLRSLQYLRLNDNPWVCDCRARPLWAWLQKFRGSSSEVPCNLPQRLAGRDLKRLAASDLEGCAVASGPFRPFQTNQLTDEELLGLPKCCQPDAADKA
- percent competition of binding [1]: 80%

B2: His-AP-Sp35 fusion protein (His-tagged alkaline phosphatase fused to the extracellular domain of Sp35, a.a. 34-532) (other, human)
chain: IIPVEEENPDFWNREAAEALGAAKKLQPAQTAAKNLIIFLGDGMGVSTVTAARILKGQKKDKLGPEIPLAMDRFPYVALSKTYNVDKHVPDSGATATAYLCGVKGNFQTIGLSAAARFNQCNTTRGNEVISVMNRAKKAGKSVGVVTTTRVQHASPAGTYAHTVNRNWYSDADVPASARQEGCQDIATQLISNMDIDVILGGGRKYMFRMGTPDPEYPDDYSQGGTRLDGKNLVQEWLAKRQGARYVWNRTELMQASLDPSVTHLMGLFEPGDMKYEIHRDSTLDPSLMEMTEAALRLLSRNPRGFFLFVEGGRIDHGHHESRAYRALTETIMFDDAIERAGQLTSEEDTLSLVTADHSHVFSFGGYPLRGSSIFGLAPGKARDRKAYTVLLYGNGPGYVLKDGARPDVTESESGSPEYRQQSAVPLDEETHAGEDVAVFARGPQAHLVHGVQEQTFIAHVMAFAACLEPYTACDLAPPAGTTDAAHPGTGCPPRCECSAQDRAVLCHRKRFVAVPEGIPTETRLLDLGKNRIKTLNQDEFASFPHLEELELNENIVSAVEPGAFNNLFNLRTLGLRSNRLKLIPLGVFTGLSNLTKLDISENKIVILLDYMFQDLYNLKSLEVGDNDLVYISHRAFSGLNSLEQLTLEKCNLTSIPTEALSHLHGLIVLRLRHLNINAIRDYSFKRLYRLKVLEISHWPYLDTMTPNCLYGLNLTSLSITHCNLTAVPYLAVRHLVYLRFLNLSYNPISTIEGSMLHELLRLQEIQLVGGQLAVVEPYAFRGLNYLRVLNVSGNQLTTLEESVFHSVGNLETLILDSNPLACDCRLLWVFRRRWRLNFNRQQPTCATPEFVQGKEFKDFPDVLLPNYFTCRRARIRDRKAQQVFVDEGHTVQFVCRADGDPPPAILWLSPRKHLVSAKSNGRLTVFPDGTLEVRYAQVQDNGTYLCIAANAGGNDSMPAHLHVRSYSPDWPHQPNKTFAFISNQPGE
notes: Order His-AP-Sp35 as in the name; also called alkaline phosphatase-Sp35 conjugate; His-AP-Sp35 (34-532); not shown: His tag
- EC50 [2]: ~6 nM

B3: His-AP-Sp35 (34-532) with amino acid 456 mutated from arginine to glutamic acid and amino acid 458 from histidine to valine (other)
chain: TGCPPRCECSAQDRAVLCHRKRFVAVPEGIPTETRLLDLGKNRIKTLNQDEFASFPHLEELELNENIVSAVEPGAFNNLFNLRTLGLRSNRLKLIPLGVFTGLSNLTKLDISENKIVILLDYMFQDLYNLKSLEVGDNDLVYISHRAFSGLNSLEQLTLEKCNLTSIPTEALSHLHGLIVLRLRHLNINAIRDYSFKRLYRLKVLEISHWPYLDTMTPNCLYGLNLTSLSITHCNLTAVPYLAVRHLVYLRFLNLSYNPISTIEGSMLHELLRLQEIQLVGGQLAVVEPYAFRGLNYLRVLNVSGNQLTTLEESVFHSVGNLETLILDSNPLACDCRLLWVFRRRWRLNFNRQQPTCATPEFVQGKEFKDFPDVLLPNYFTCRRARIRDRKAQQVFVDEGHTVQFVCRADGDPPPAILWLSPEKVLVSAKSNGRLTVFPDGTLEVRYAQVQDNGTYLCIAANAGGNDSMPAHLHVRSYSPDWPHQPNKTFAFISNQPGE
notes: also called Sp35 construct in which residues R at 456 and H at 458 were changed into E and V; not shown: N-terminal His tag and alkaline phosphatase (AP) reporter of the His-AP vector, with any junction residues
- fold drop in signal (against the unmutated construct) [3]: > 10 fold
